1 molecule from PMC2173397 can be followed below.

For the experiment, the target named is T1, Apaf-1 (human (endogenous in HeLa)), O14727.
T1 chain: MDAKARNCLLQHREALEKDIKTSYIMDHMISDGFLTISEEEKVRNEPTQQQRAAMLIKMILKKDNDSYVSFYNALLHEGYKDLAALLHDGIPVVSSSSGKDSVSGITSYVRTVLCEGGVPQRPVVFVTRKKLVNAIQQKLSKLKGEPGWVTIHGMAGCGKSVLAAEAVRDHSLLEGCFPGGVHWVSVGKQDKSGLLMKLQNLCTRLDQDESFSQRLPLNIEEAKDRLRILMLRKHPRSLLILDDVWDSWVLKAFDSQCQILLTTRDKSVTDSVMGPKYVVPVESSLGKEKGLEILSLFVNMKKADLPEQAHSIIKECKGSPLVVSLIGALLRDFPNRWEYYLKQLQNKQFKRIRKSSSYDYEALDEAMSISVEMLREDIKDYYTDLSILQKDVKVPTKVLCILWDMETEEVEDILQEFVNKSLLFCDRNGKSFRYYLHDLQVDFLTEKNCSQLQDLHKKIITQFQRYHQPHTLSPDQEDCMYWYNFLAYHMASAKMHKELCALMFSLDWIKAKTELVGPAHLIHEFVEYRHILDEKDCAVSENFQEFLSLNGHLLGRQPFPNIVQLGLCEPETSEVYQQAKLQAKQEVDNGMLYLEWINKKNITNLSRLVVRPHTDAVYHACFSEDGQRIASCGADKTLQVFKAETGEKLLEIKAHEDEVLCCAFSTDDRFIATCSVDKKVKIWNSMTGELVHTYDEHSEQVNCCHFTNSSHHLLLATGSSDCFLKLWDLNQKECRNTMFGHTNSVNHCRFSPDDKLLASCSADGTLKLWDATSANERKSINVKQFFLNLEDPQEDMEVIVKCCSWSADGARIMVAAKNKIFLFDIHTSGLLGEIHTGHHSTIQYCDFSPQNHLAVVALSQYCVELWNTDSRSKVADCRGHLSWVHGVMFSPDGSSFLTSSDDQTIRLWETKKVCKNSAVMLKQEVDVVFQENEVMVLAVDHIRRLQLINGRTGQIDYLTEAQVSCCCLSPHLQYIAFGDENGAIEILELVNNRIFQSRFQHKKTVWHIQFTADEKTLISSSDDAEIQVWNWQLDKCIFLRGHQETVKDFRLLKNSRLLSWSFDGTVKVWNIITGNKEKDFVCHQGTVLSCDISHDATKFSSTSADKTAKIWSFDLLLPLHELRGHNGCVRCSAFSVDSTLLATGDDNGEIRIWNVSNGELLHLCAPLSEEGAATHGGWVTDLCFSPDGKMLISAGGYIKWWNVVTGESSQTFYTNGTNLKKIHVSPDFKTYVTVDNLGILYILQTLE
Kind of experiment: SEC. Conditions: remark: other sources report otherwise.

B1: caspase-9, P55211 1-416 (natural protein)
chain: MDEADRRLLRRCRLRLVEELQVDQLWDALLSRELFRPHMIEDIQRAGSGSRRDQARQLIIDLETRGSQALPLFISCLEDTGQDMLASFLRTNRQAAKLSKPTLENLTPVVLRPEIRKPEVLRPETPRPVDIGSGGFGDVGALESLRGNADLAYILSMEPCGHCLIINNVNFCRESGLRTRTGSNIDCEKLRRRFSSLHFMVEVKGDLTAKKMVLALLELAQQDHGALDCCVVVILSHGCQASHLQFPGAVYGTDGCPVSVEKIVNIFNGTSCPSLGGKPKLFFIQACGGEQKDHGFEVASTSPEDESPGSNPEPDATPFQEGLRTFDQLDAISSLPTPSDIFVSYSTFPGFVSWRDPKSGSWYVETLDDIFEQWAHSEDLQSLLLRVANAVSVKGIYKQMPGCFNFLRKKLFFKTS
For B1, the percent recruited to the high Mr complex amounted to 50%.
